Residue numbers refer to the chain shown, from its start. Bridge positions count the residues as written; N and C are the ends. Square brackets hold non-standard residues; d marks the D form. Oic = O=C(O)[C@@H]1C[C@@H]2CCCC[C@@H]2N1; 1Nal = N[C@@H](Cc1cccc2ccccc12)C(=O)O; Igl = N[C@H](C(=O)O)C1Cc2ccccc2C1; hArg = N=C(N)NCCCC[C@H](N)C(=O)O; Cit = NC(=O)NCCC[C@H](N)C(=O)O; Phg = N[C@H](C(=O)O)c1ccccc1; Nle = CCCC[C@H](N)C(=O)O
B1: SEQ ID NO 918 (peptide)
peptide: Ac-WVTH[Cit]LAGLLS[Cit]SGGVVRKNFVPTDVGPKAF-NH2
SMILES: CC(=O)N[C@@H](Cc1c[nH]c2ccccc12)C(=O)N[C@H](C(=O)N[C@H](C(=O)N[C@@H](Cc1c[nH]cn1)C(=O)N[C@@H](CCCNC(N)=O)C(=O)N[C@@H](CC(C)C)C(=O)N[C@@H](C)C(=O)NCC(=O)N[C@@H](CC(C)C)C(=O)N[C@@H](CC(C)C)C(=O)N[C@@H](CO)C(=O)N[C@@H](CCCNC(N)=O)C(=O)N[C@@H](CO)C(=O)NCC(=O)NCC(=O)N[C@H](C(=O)N[C@H](C(=O)N[C@@H](CCCNC(=N)N)C(=O)N[C@@H](CCCCN)C(=O)N[C@@H](CC(N)=O)C(=O)N[C@@H](Cc1ccccc1)C(=O)N[C@H](C(=O)N1CCC[C@H]1C(=O)N[C@H](C(=O)N[C@@H](CC(=O)O)C(=O)N[C@H](C(=O)NCC(=O)N1CCC[C@H]1C(=O)N[C@@H](CCCCN)C(=O)N[C@@H](C)C(=O)N[C@@H](Cc1ccccc1)C(N)=O)C(C)C)[C@@H](C)O)C(C)C)C(C)C)C(C)C)[C@@H](C)O)C(C)C
B2: SEQ ID NO 920 (peptide)
peptide: WVTHXLAGLLSXSGGVVRKNFVPTDVGXFAF
modifications: Ac-WVTH[Cit]LAGLLS[Cit]SGGVVRKNFVPTDVG[Oic]FAF-NH2
B3: SEQ ID NO 921 (peptide)
peptide: B2 peptide with P23X
modifications: Ac-WVTH[Cit]LAGLLS[Cit]SGGVVRKNFV[Oic]TDVG[Oic]FAF-NH2
B4: SEQ ID NO 922 (peptide)
peptide: B2 peptide with F21X, X28P, F31X
modifications: Ac-WVTH[Cit]LAGLLS[Cit]SGGVVRKN[pI-Phe]VPTDVGPFA[pI-Phe]-NH2
B5: SEQ ID NO 923 (peptide)
peptide: B2 peptide with X28P, F31X
modifications: Ac-WVTH[Cit]LAGLLS[Cit]SGGVVRKNFVPTDVGPFA[pI-Phe]-NH2
B6: SEQ ID NO 924 (peptide)
peptide: B2 peptide with R18X, X28P, F29X
modifications: Ac-WVTH[hArg]LAGLLS[Cit]SGGVV[hArg]KNFVPTDVGP[1-Nal]AF-NH2
B7: SEQ ID NO 925 (peptide)
peptide: Ac-WVTH[hArg]LAGLLS[Cit]SGGVV[hArg]KNFVPTDVGPFA[Phg]-NH2
SMILES: CC(=O)N[C@@H](Cc1c[nH]c2ccccc12)C(=O)N[C@H](C(=O)N[C@H](C(=O)N[C@@H](Cc1c[nH]cn1)C(=O)N[C@@H](CCCCNC(=N)N)C(=O)N[C@@H](CC(C)C)C(=O)N[C@@H](C)C(=O)NCC(=O)N[C@@H](CC(C)C)C(=O)N[C@@H](CC(C)C)C(=O)N[C@@H](CO)C(=O)N[C@@H](CCCNC(N)=O)C(=O)N[C@@H](CO)C(=O)NCC(=O)NCC(=O)N[C@H](C(=O)N[C@H](C(=O)N[C@@H](CCCCNC(=N)N)C(=O)N[C@@H](CCCCN)C(=O)N[C@@H](CC(N)=O)C(=O)N[C@@H](Cc1ccccc1)C(=O)N[C@H](C(=O)N1CCC[C@H]1C(=O)N[C@H](C(=O)N[C@@H](CC(=O)O)C(=O)N[C@H](C(=O)NCC(=O)N1CCC[C@H]1C(=O)N[C@@H](Cc1ccccc1)C(=O)N[C@@H](C)C(=O)N[C@H](C(N)=O)c1ccccc1)C(C)C)[C@@H](C)O)C(C)C)C(C)C)C(C)C)[C@@H](C)O)C(C)C
B8: SEQ ID NO 926 (peptide)
peptide: B2 peptide with R18X, X28P, F29X
modifications: Ac-WVTH[hArg]LAGLLS[Cit]SGGVV[hArg]KNFVPTDVGP[2-Nal]AF-NH2
B9: PEG-peptide of SEQ ID NO 926 (peptide)
peptide: B2 peptide with R18X, X28P, F29X
modifications: Ac-WVTH[hArg]LAGLLS[Cit]SGGVV[hArg]KNFVPTDVGP[2-Nal]AF-NH2; PEG-conjugated (Table 2C: in most cases at Lys^25)
B10: SEQ ID NO 927 (peptide)
peptide: B2 peptide with R18X, X28P, F29X
modifications: Ac-WVTH[Cit]LAGLLS[Cit]SGGVV[hArg]KNFVPTDVGP[1-Nal]AF-NH2
B11: PEG-peptide of SEQ ID NO 927 (peptide)
peptide: B2 peptide with R18X, X28P, F29X
modifications: Ac-WVTH[Cit]LAGLLS[Cit]SGGVV[hArg]KNFVPTDVGP[1-Nal]AF-NH2; PEG-conjugated (Table 2C: in most cases at Lys^25)
B12: SEQ ID NO 928 (peptide)
peptide: WVTHXLAGLLSXSGGVVXKNXVPTDVGPXAF
modifications: Ac-WVTH[Cit]LAGLLS[Cit]SGGVV[hArg]KN[pI-Phe]VPTDVGP[pI-Phe]AF-NH2
B13: PEG-peptide of SEQ ID NO 928 (peptide)
peptide: B12 peptide
modifications: Ac-WVTH[Cit]LAGLLS[Cit]SGGVV[hArg]KN[pI-Phe]VPTDVGP[pI-Phe]AF-NH2; PEG-conjugated (Table 2C: in most cases at Lys^25)
B14: SEQ ID NO 929 (peptide)
peptide: B12 peptide with X21F
modifications: Ac-WVTH[Cit]LAGLLS[Cit]SGGVV[hArg]KNFVPTDVGP[Bip]AF-NH2
B15: PEG-peptide of SEQ ID NO 929 (peptide)
peptide: B12 peptide with X21F
modifications: Ac-WVTH[Cit]LAGLLS[Cit]SGGVV[hArg]KNFVPTDVGP[Bip]AF-NH2; PEG-conjugated (Table 2C: in most cases at Lys^25)
B16: SEQ ID NO 930 (peptide)
peptide: Ac-WVTH[Cit]LAGLLS[Cit]SGGVV[hArg]KNFVPTDVGP[Igl]AF-NH2
B17: PEG-peptide of SEQ ID NO 930 (peptide)
peptide: Ac-WVTH[Cit]LAGLLS[Cit]SGGVV[hArg]KNFVPTDVGP[Igl]AF-NH2
modifications: also: PEG-conjugated, in most cases at Lys25
B18: SEQ ID NO 932 (peptide)
peptide: B2 peptide with R18X, P23X
modifications: Ac-WVTH[Cit]LAGLLS[Cit]SGGVV[hArg]KNFV[Oic]TDVG[Oic]FAF-NH2
B19: SEQ ID NO 933 (peptide)
peptide: B2 peptide with R18X, F29X
modifications: Ac-WVTH[Cit]LAGLLS[Cit]SGGVV[hArg]KNFVPTDVG[Oic][1-Nal]AF-NH2
B20: SEQ ID NO 934 (peptide)
peptide: B2 peptide with R18X, F29X
modifications: Ac-WVTH[Cit]LAGLLS[Cit]SGGVV[hArg]KNFVPTDVG[Oic][2-Nal]AF-NH2
B21: SEQ ID NO 935 (peptide)
peptide: B2 peptide with R18X, X28P
modifications: Ac-WVTH[Cit]LAGLLS[hArg]SGGVV[Guf]KNFVPTDVGPFAF-NH2
B22: SEQ ID NO 936 (peptide)
peptide: B2 peptide with R18X, X28P
modifications: Ac-WVTH[Cit]LAGLLS[hArg]SGGVV[BhArg]KNFVPTDVGPFAF-NH2
B23: SEQ ID NO 937 (peptide)
peptide: B2 peptide with R18X, X28P
modifications: Ac-WVTH[Cit]LAGLLS[Cit]SGGVV[Cit]KNFVPTDVGPFAF-NH2
B24: SEQ ID NO 938 (peptide)
peptide: B2 peptide with R18X, X28P
modifications: Ac-WVTH[Cit]LAGLLS[Cit]SGGVV[3G-Dpr]KNFVPTDVGPFAF-NH2
B25: SEQ ID NO 940 (peptide)
peptide: Ac-WVTH[Cit]LAGLLS[Cit]SGGV[Nle]RKNFVPTDVGPFAF-NH2
SMILES: CCCC[C@H](NC(=O)[C@@H](NC(=O)CNC(=O)CNC(=O)[C@H](CO)NC(=O)[C@H](CCCNC(N)=O)NC(=O)[C@H](CO)NC(=O)[C@H](CC(C)C)NC(=O)[C@H](CC(C)C)NC(=O)CNC(=O)[C@H](C)NC(=O)[C@H](CC(C)C)NC(=O)[C@H](CCCNC(N)=O)NC(=O)[C@H](Cc1c[nH]cn1)NC(=O)[C@@H](NC(=O)[C@@H](NC(=O)[C@H](Cc1c[nH]c2ccccc12)NC(C)=O)C(C)C)[C@@H](C)O)C(C)C)C(=O)N[C@@H](CCCNC(=N)N)C(=O)N[C@@H](CCCCN)C(=O)N[C@@H](CC(N)=O)C(=O)N[C@@H](Cc1ccccc1)C(=O)N[C@H](C(=O)N1CCC[C@H]1C(=O)N[C@H](C(=O)N[C@@H](CC(=O)O)C(=O)N[C@H](C(=O)NCC(=O)N1CCC[C@H]1C(=O)N[C@@H](Cc1ccccc1)C(=O)N[C@@H](C)C(=O)N[C@@H](Cc1ccccc1)C(N)=O)C(C)C)[C@@H](C)O)C(C)C
B26: PEG-peptide of SEQ ID NO 941 (peptide)
peptide: B2 peptide with R18X, X28P
modifications: Ac-WVTH[Cit]LAGLLS[Cit]SGGVV[hArg](30 KPEGald)NFVPTDVGPFAF-NH2
B27: SEQ ID NO 942 (peptide)
peptide: Ac-WVTH[hArg]LEGLLK[Cit]SGGVV[hArg]KNFVPTDVG[Oic]FAF-NH2
modifications: lactam (positions not given here); not fully specified; printed as Ac-WVTH[hArg]LEGLLK[Cit]SGGVV[hArg]KNFVPTDVG[Oic]FAF-NH2
B28: SEQ ID NO 943 (peptide)
peptide: Ac-WVTH[Cit]LAGELS[Cit]KGGVV[hArg]KNFVPTDVG[Oic]FAF-NH2
B29: SEQ ID NO 944 (peptide)
peptide: Ac-WVTH[Cit]LAGELS[hArg]KGGVV[hArg]KNFVPTDVG[Oic][1Nal]AF-NH2
modifications: lactam 9-13
SMILES: CC(=O)N[C@@H](Cc1c[nH]c2ccccc12)C(=O)N[C@H](C(=O)N[C@H](C(=O)N[C@@H](Cc1c[nH]cn1)C(=O)N[C@@H](CCCNC(N)=O)C(=O)N[C@@H](CC(C)C)C(=O)N[C@@H](C)C(=O)NCC(=O)N[C@H]1CCC(=O)NCCCC[C@@H](C(=O)NCC(=O)NCC(=O)N[C@H](C(=O)N[C@H](C(=O)N[C@@H](CCCCNC(=N)N)C(=O)N[C@@H](CCCCN)C(=O)N[C@@H](CC(N)=O)C(=O)N[C@@H](Cc2ccccc2)C(=O)N[C@H](C(=O)N2CCC[C@H]2C(=O)N[C@H](C(=O)N[C@@H](CC(=O)O)C(=O)N[C@H](C(=O)NCC(=O)N2[C@H](C(=O)N[C@@H](Cc3cccc4ccccc34)C(=O)N[C@@H](C)C(=O)N[C@@H](Cc3ccccc3)C(N)=O)C[C@@H]3CCCC[C@@H]32)C(C)C)[C@@H](C)O)C(C)C)C(C)C)C(C)C)NC(=O)[C@H](CCCCNC(=N)N)NC(=O)[C@H](CO)NC(=O)[C@H](CC(C)C)NC1=O)[C@@H](C)O)C(C)C
B30: SEQ ID NO 945 (peptide)
peptide: Ac-KWVTH[Cit]LAGLLS[Cit]SGGVVRKNFVPTDVGPKAF-NH2
SMILES: CC(=O)N[C@@H](CCCCN)C(=O)N[C@@H](Cc1c[nH]c2ccccc12)C(=O)N[C@H](C(=O)N[C@H](C(=O)N[C@@H](Cc1c[nH]cn1)C(=O)N[C@@H](CCCNC(N)=O)C(=O)N[C@@H](CC(C)C)C(=O)N[C@@H](C)C(=O)NCC(=O)N[C@@H](CC(C)C)C(=O)N[C@@H](CC(C)C)C(=O)N[C@@H](CO)C(=O)N[C@@H](CCCNC(N)=O)C(=O)N[C@@H](CO)C(=O)NCC(=O)NCC(=O)N[C@H](C(=O)N[C@H](C(=O)N[C@@H](CCCNC(=N)N)C(=O)N[C@@H](CCCCN)C(=O)N[C@@H](CC(N)=O)C(=O)N[C@@H](Cc1ccccc1)C(=O)N[C@H](C(=O)N1CCC[C@H]1C(=O)N[C@H](C(=O)N[C@@H](CC(=O)O)C(=O)N[C@H](C(=O)NCC(=O)N1CCC[C@H]1C(=O)N[C@@H](CCCCN)C(=O)N[C@@H](C)C(=O)N[C@@H](Cc1ccccc1)C(N)=O)C(C)C)[C@@H](C)O)C(C)C)C(C)C)C(C)C)[C@@H](C)O)C(C)C
B31: SEQ ID NO 947 (peptide)
peptide: B12 peptide with X21F
modifications: Ac-WVTH[Cit]LAGLLS[Cit]SGGVV[hArg]KNFVPTDVGP[Tic]AF-NH2

Molecular target: CGRP1 receptor (CRLR/RAMP1 complex) of human neuroblastoma SK-N-MC cells (human, UniProt Q16602 23-461; O60894 27-148)
Test: cell-based or functional assay

Sequence of CGRP1 receptor (CRLR/RAMP1 complex) of human neuroblastoma SK-N-MC cells (Q16602 23-461, chain 1 of 2): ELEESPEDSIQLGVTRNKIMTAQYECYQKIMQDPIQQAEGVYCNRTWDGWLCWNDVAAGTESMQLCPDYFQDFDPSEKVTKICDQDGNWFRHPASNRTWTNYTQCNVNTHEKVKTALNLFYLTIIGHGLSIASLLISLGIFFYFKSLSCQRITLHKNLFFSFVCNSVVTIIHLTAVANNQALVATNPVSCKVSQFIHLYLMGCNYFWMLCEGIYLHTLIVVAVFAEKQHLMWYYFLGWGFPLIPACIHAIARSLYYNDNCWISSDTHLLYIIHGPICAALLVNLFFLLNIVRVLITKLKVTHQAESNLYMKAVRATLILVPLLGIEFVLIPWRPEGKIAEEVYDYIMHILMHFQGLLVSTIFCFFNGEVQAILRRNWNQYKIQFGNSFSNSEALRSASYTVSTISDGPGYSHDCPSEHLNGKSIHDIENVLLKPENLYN
Sequence of CGRP1 receptor (CRLR/RAMP1 complex) of human neuroblastoma SK-N-MC cells (O60894 27-148, chain 2 of 2): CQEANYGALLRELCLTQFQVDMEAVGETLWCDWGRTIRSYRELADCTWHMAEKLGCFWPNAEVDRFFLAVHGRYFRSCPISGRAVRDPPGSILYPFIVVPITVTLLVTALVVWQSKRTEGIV

Binder	Peptide IC50 [nM]	PEG-peptide IC50 [nM]
B1	1.48	–
B2	0.85	–
B3	0.93	–
B4	2.21	–
B5	2.24	–
B6	2.18	–
B7	6.78	–
B8	0.88	–
B9	–	2.39
B10	1.28	–
B11	–	2.54
B12	1.16	–
B13	–	11.4
B14	1.76	–
B15	–	5.58
B16	4.58	–

Binder	Peptide IC50 [nM]	PEG-peptide IC50 [nM]
B17	–	126
B18	1.31	–
B19	0.88	–
B20	1.65	–
B21	2.37	–
B22	2.41	–
B23	2.87	–
B24	1.39	–
B25	1.85	–
B26	–	7.76
B27	0.83	–
B28	1.45	–
B29	0.85	–
B30	13	–
B31	89.9	–

From patent US20080020978A1 (Amgen, published 2008)
